# T1: KIF5B-Δhinge (Δ505-610)-mScarlet-StrepII (human, UniProt P33176 1-963, Δ505-610)
# T1 construct: KIF5B, human, full length with aa 505-610 deleted (aa 1-504 joined to aa 611-963); also called delta-hinge mutant; delta-hinge KHC mutant; source: Sf9 (baculovirus), purified (Streptactin XT, SEC; the fractions that eluted like the wild type were used); not shown: mScarlet, C-terminal, kept
# T1 sequence (looked up): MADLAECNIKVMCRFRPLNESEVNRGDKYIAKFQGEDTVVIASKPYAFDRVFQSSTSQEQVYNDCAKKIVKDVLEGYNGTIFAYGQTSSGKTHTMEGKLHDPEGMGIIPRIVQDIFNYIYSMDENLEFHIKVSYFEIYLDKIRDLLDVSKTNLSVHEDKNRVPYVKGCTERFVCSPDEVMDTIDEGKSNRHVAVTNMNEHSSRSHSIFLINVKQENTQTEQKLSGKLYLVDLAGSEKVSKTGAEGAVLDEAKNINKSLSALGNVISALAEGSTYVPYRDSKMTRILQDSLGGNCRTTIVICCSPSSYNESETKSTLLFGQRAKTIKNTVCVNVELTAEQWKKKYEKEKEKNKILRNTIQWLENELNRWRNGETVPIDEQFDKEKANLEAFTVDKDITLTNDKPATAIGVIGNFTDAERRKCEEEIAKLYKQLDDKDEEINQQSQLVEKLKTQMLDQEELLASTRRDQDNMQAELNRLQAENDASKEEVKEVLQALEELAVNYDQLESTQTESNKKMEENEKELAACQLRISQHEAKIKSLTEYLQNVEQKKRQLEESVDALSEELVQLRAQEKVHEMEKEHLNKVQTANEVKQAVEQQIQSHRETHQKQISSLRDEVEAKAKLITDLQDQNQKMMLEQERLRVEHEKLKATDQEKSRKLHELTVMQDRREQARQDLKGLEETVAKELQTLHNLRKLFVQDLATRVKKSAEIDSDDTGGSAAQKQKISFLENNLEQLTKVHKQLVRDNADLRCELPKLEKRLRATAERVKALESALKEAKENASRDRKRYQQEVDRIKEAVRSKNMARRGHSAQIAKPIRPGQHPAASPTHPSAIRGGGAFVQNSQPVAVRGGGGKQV
# What was measured:
# [1] = target: T1, KIF5B-Δhinge (Δ505-610)-mScarlet-StrepII; assay: TIRF microscopy on microtubules; 40 nM KIF5B (wild type, mutants or K420B) on MTs with or without 200 nM recombinant KLC1, KLC1-CC or KLC1-TPR added in trans; ATP; relative fluorescence intensity on MTs; settings: both partners purified
# [2] = target: the molecule itself; assay: SEC-MALS; purified full-length KIF5 alone; BioSep SEC-s4000 column, GF150 buffer (25 mM HEPES-KOH, 150 mM KCl, 2 mM MgCl2)
Binder,binding result [1],stoichiometry N [2]
"6xHis-2xStrepII-sfGFP-KLC1-CC (aa 1-200) (domain or fragment, human, UniProt Q07866 1-200, looked up, kinesin light chain 1, human, aa 1-200 (N-terminal coiled-coil part); also called N-terminal domain of the KLC; source: pET28a construct (E. coli BL21-CodonPlus (DE3)-RIPL), purified (Streptactin XT, SEC on Superdex 200)) MYDNMSTMVYIKEDKLEKLTQDEIISKTKQVIQGLEALKNEHNSILQSLLETLKCLKKDDESNLVEEKSNMIRKSLEMLELGLSEAQVMMALSNHLNAVESEKQKLRAQVRRLCQENQWLRDELANTQQKLQKSEQSVAQLEEEKKHLEFMNQLKKYDDDISPSEDKDTDSTKEPLDDLFPNDEDDPGQGIQQQHSSAAA",binds,
"full-length human KIF5C-mScarlet-StrepII (natural protein, UniProt O60282 1-957, looked up, kinesin heavy chain KIF5C, human, cDNA BC110287, full length; 2x Prescission protease sites lie between KIF5C and mScarlet; also called KHC; source: Sf9 (baculovirus), purified (Streptactin XT, SEC); also co-expressed with KLC1 and co-purified; not shown: mScarlet, C-terminal, kept) MADPAECSIKVMCRFRPLNEAEILRGDKFIPKFKGDETVVIGQGKPYVFDRVLPPNTTQEQVYNACAKQIVKDVLEGYNGTIFAYGQTSSGKTHTMEGKLHDPQLMGIIPRIAHDIFDHIYSMDENLEFHIKVSYFEIYLDKIRDLLDVSKTNLAVHEDKNRVPYVKGCTERFVSSPEEVMDVIDEGKANRHVAVTNMNEHSSRSHSIFLINIKQENVETEKKLSGKLYLVDLAGSEKVSKTGAEGAVLDEAKNINKSLSALGNVISALAEGTKTHVPYRDSKMTRILQDSLGGNCRTTIVICCSPSVFNEAETKSTLMFGQRAKTIKNTVSVNLELTAEEWKKKYEKEKEKNKTLKNVIQHLEMELNRWRNGEAVPEDEQISAKDQKNLEPCDNTPIIDNIAPVVAGISTEEKEKYDEEISSLYRQLDDKDDEINQQSQLAEKLKQQMLDQDELLASTRRDYEKIQEELTRLQIENEAAKDEVKEVLQALEELAVNYDQKSQEVEDKTRANEQLTDELAQKTTTLTTTQRELSQLQELSNHQKKRATEILNLLLKDLGEIGGIIGTNDVKTLADVNGVIEEEFTMARLYISKMKSEVKSLVNRSKQLESAQMDSNRKMNASERELAACQLLISQHEAKIKSLTDYMQNMEQKRRQLEESQDSLSEELAKLRAQEKMHEVSFQDKEKEHLTRLQDAEEMKKALEQQMESHREAHQKQLSRLRDEIEEKQKIIDEIRDLNQKLQLEQEKLSSDYNKLKIEDQEREMKLEKLLLLNDKREQAREDLKGLEETVSRELQTLHNLRKLFVQDLTTRVKKSVELDNDDGGGSAAQKQKISFLENNLEQLTKVHKQLVRDNADLRCELPKLEKRLRATAERVKALESALKEAKENAMRDRKRYQQEVDRIKEAVRAKNMARRAHSAQIAKPIRPGHYPASSPTAVHAIRGGGGSSSNSTHYQK",,2

# — PMC9365671, “Synergistic autoinhibition and activation mechanisms control kinesin-1 motor activity” (Cell reports, 2022)
